Sequences and labels used below:
B3: IQGAP2 (mouse, endogenous, liver lysate) (other, UniProt Q3UQ44 1-1575, looked up)
chain: MPHEELPSLQRPRYGSIVDDERLSAEEMDERRRQNIAYEYLCHLEEAKRWMEVCLVEELPPTTELEEGLRNGVYLAKLAKFFAPKMVSEKKIYDVEQTRYKKSGLHFRHTDNTVQWLRAMEAIGLPKIFYPETTDVYDRKNIPRMIYCIHALSLYLFKLGIAPQIQDLLGKVDFTEEEISNMRKELEKYGIQMPAFSKIGGILANELSVDEAALHAAVIAINEAIEKGVAKQTIITLRNPNAVLTCVDDSLSQEYQKELWEAKKKKEESAKLKNSCISEEERDAYEELLTQAEIQSNISTVNRMAAVDHINAVLQEGDPENTLLALKKPEAQLPAVYPFAAVMYQNELFNLQKQNTSNYLAHEELLIAVEMLSAVALLNQALESSDLVAVQNQLRSPTIGFNNLDEAHVDRYADALLSVKQEALSQGQDTLSWNEIQNCIDMINNQIQEENDRMVVLGYINEAIDAGNPLKTLDTLLLPTANIRDVDPDCAQHYQDVLFYTKSQKLGDPKNVSKVLWLDEIQQAINEANVDENRAKQWVTLVVDVNECLDRKQSDHILTALKSSPSNIHNILPECANKYYDTLVKAKESKTDNESSEGSWVTLNVQEKYNYYYNTDSKEGSWVPPELCLSKESWLTGEEIEDIVEEVTSDYIREKLWSASEDLLVRFEATTLGPALREEFEARKAFLYEQTESVVKIQAFWKGFKQRQEYLHRQQVFAGNVDSVVKIQSWFRMVTARKSYLSRLRYFEDHKNEIVKIQSLLRASKARDDYKALVGSENPPLTVIRKFVYLLDQSDLDFQEELEVARLREEVVTKIRANQQLEKDLNLMDIKIGLLVKNRITLEDVISHRKKLNKKKGGEIEILNNTDNKGIKSLSKERRKTLETYQQLFYLLQTKPSYLAKLIFQMPQNKSTKFMDTVIFTLYNYASNQREEYLLLKLFKTALEEEIKSKVDQVQDIVTGNPTVIKMVVSFNRGARGQNTLRQLLAPVVKEIIEDKALVINTNPVEVYKAWVNQLETQTGEASKLPYDVTTEQALTYPEVKNKLEASIENLRKVTDKVLGSIISSLDLLPYGLRYIAKVLKNSIREKFPDATEEELLKIVGNLLYYRYMNPAIVAPDGFDIIDMTAGGQINSNQRRNLGSVAKVLQHAASNKLFEGENEHLSSMNNYLSETYQEFRKYFQEACDVPEPEEKFNMDKYTDLVTVSKPVIYISIEEIINTHLLLLEHQDAIATEKSDLLNELLESLGEVPTVESFLGEGAVDPNDPNKENTLNQLSKTEISLSLTSKYDVKDGEAVDGRSLMIKTKKLIIDVTRNQPGSTLTEILETPATGQQELEHAKDMESRAVVDSRTPEEGKQSQAVIEDARLPLEQKKRKIQRNLRTLEQTGHVSSKNKYQDILNEIAKDIRNQRIHRKLRKAELSKLQQTLNALNKKAAFYEDQINYYDTYIKTCVDNLKRKNSRRSIKLDGKAEPKGTKRVKPVRYTAAKLHDKGVLLGIDDLQTNQFKNVMFDIIATEDMGIFDVRSKFLGVEMEKVQLNIQDLLQMQYEGVAVMKMFDKVKVNVNLLIYLLNKKFYGK

Test [1] deals with B3. Put plainly: co-immunoprecipitation from mouse whole-liver lysates, immunoblot detection. The protocol:
(§1) To further probe the relationships between IQGAP1, IQGAP2, β-catenin, and E-cadherin, a series of immunoprecipitation experiments were conducted using whole-liver lysates from Iqgap1^{-/-}, Iqgap2^{-/-}, and wildtype mice. […] In contrast, there was no evidence for specific interaction between E-cadherin and IQGAP2 in either E-cadherin- or IQGAP2-specific immunoprecipitations. […] Using normal hepatocytes, however, neither IQGAP1- nor IQGAP2-specific pull-down assays coprecipitated the corresponding homologous protein. Transient transfections of […] (which endogenously express IQGAP1) were subsequently used as an in vitro model system to specifically address the existence of putative IQGAP1-IQGAP2 heterodimers. As evident in FIG. 15B, IQGAP1 or IQGAP2 were not pulled down by reciprocal immunoprecipitations. Thus, while IQGAP1 and IQGAP2 are normally found as components of a broader quarternary scaffolding complex in hepatocytes, there appears to be no evidence that their presence within this scaffold occurs via direct (heterodimeric) interactions.
(§2) Immunoprecipitation experiments were completed using freshly isolated murine livers essentially as described previously (Schmidt, V. A., et al. 2003. Blood 101:3021-3028). In brief, intact livers were homogenized in 25 mM HEPES-0.15 M NaCl buffer, pH 7.45, supplemented with 0.1% Triton X-100 and standard protease inhibitors. […]

The target in test [2] is human IQGAP1 (full-length cDNA, transiently expressed in COS1 cells) (human, UniProt P46940 2-1657). Briefly: reciprocal co-immunoprecipitation from lysates of transiently transfected COS1 cells, immunoblot detection. As to the method:
as §1, §2
For orientation: A western blot detects proteins with antibodies after separation by electrophoresis.

Test [3] concerns the target IQGAP1 (mouse, endogenous, liver lysate) (mouse, UniProt Q9JKF1 2-1657). Put plainly: reciprocal co-immunoprecipitation from normal mouse hepatocyte/liver lysates, immunoblot detection. The protocol:
as §1, §2

Sequence of IQGAP1 (mouse, endogenous, liver lysate) (Q9JKF1 2-1657 limits assumed): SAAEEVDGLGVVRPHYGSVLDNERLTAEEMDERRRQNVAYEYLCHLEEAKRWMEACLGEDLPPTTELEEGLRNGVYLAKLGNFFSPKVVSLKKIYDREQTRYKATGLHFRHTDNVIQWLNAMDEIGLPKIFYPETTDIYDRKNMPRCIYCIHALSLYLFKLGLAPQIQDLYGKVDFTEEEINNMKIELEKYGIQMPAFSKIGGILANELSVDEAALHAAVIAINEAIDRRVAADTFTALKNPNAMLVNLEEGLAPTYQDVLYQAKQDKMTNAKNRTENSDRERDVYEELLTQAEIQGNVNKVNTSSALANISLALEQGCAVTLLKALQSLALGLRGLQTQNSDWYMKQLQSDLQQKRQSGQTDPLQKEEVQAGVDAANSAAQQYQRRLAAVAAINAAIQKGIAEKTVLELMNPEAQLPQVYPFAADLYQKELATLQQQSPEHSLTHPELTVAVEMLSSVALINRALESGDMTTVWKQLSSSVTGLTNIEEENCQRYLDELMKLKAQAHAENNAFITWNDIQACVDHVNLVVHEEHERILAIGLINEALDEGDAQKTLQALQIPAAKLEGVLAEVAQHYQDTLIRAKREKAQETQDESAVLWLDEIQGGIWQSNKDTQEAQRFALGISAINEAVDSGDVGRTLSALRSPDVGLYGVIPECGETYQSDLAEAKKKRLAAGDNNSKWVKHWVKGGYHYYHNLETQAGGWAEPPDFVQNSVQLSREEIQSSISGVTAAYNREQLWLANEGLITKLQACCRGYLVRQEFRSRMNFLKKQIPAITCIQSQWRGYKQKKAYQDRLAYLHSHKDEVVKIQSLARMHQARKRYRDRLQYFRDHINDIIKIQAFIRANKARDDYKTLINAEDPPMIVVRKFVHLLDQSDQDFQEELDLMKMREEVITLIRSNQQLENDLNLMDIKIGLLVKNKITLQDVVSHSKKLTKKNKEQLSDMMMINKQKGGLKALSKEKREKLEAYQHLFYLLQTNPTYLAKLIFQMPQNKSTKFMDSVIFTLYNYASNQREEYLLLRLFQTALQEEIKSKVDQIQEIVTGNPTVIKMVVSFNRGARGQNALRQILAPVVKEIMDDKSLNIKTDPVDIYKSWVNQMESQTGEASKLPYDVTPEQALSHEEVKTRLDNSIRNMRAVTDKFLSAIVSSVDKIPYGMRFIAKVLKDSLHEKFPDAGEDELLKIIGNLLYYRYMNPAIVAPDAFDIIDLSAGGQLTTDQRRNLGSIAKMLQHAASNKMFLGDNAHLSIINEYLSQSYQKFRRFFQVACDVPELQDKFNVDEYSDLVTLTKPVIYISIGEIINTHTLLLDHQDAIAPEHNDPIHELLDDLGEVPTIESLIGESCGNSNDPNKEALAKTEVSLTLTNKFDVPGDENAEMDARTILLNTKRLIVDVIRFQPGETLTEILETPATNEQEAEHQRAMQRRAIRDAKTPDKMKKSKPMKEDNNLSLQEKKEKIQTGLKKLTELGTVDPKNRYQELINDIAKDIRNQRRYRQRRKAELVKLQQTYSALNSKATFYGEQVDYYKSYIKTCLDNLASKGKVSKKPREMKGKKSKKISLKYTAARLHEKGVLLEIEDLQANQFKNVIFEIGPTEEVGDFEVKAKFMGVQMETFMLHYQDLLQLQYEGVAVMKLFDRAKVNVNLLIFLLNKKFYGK
Sequence of human IQGAP1 (full-length cDNA, transiently expressed in COS1 cells) (P46940 2-1657 limits assumed): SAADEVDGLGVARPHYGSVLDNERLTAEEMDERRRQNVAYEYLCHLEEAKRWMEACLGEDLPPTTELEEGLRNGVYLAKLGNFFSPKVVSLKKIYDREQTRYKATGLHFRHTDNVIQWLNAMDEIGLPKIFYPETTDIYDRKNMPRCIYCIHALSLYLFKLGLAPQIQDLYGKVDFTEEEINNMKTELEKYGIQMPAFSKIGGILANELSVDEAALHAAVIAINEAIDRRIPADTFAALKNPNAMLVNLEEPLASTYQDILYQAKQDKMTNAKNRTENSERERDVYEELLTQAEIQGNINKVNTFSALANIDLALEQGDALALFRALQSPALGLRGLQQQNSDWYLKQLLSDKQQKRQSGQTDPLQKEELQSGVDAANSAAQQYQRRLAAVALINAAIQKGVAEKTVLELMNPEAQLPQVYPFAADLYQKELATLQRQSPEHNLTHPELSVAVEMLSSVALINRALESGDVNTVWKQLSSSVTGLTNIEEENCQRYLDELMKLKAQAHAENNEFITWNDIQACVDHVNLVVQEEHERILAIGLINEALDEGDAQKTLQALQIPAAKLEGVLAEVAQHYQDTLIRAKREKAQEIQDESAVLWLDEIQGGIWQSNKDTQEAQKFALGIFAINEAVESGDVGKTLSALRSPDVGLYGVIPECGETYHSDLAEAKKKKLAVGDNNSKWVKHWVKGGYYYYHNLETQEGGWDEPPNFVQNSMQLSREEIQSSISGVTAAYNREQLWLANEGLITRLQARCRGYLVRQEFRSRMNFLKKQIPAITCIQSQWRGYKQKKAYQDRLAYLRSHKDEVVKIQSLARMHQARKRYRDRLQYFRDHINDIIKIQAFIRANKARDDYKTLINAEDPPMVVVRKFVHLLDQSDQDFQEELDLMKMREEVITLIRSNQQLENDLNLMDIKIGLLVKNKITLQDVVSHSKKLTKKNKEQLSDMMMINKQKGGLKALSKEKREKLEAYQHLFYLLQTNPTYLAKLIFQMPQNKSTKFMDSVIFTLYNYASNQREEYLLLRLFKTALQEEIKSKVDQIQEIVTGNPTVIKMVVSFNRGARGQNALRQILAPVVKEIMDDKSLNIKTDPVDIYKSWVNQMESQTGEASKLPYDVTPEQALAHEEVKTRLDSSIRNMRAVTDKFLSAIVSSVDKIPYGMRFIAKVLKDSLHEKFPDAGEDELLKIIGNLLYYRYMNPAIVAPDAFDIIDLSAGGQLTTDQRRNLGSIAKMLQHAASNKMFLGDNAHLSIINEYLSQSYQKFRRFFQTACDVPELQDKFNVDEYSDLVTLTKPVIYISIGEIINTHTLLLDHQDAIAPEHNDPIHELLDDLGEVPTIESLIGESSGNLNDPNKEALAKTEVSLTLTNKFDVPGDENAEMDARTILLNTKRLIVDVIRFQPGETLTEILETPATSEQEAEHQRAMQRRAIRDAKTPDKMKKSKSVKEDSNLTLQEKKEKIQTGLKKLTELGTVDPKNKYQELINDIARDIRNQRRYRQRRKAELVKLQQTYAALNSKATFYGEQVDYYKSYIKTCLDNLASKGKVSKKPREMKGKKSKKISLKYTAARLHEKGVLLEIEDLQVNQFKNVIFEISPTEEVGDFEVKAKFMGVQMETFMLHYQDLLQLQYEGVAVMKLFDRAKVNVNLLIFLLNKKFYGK

B1: E-cadherin (mouse, endogenous, liver lysate) (other, UniProt P09803 157-884, looked up)
chain: DWVIPPISCPENEKGEFPKNLVQIKSNRDKETKVFYSITGQGADKPPVGVFIIERETGWLKVTQPLDREAIAKYILYSHAVSSNGEAVEDPMEIVITVTDQNDNRPEFTQEVFEGSVAEGAVPGTSVMKVSATDADDDVNTYNAAIAYTIVSQDPELPHKNMFTVNRDTGVISVLTSGLDRESYPTYTLVVQAADLQGEGLSTTAKAVITVKDINDNAPVFNPSTYQGQVPENEVNARIATLKVTDDDAPNTPAWKAVYTVVNDPDQQFVVVTDPTTNDGILKTAKGLDFEAKQQYILHVRVENEEPFEGSLVPSTATVTVDVVDVNEAPIFMPAERRVEVPEDFGVGQEITSYTAREPDTFMDQKITYRIWRDTANWLEINPETGAIFTRAEMDREDAEHVKNSTYVALIIATDDGSPIATGTGTLLLVLLDVNDNAPIPEPRNMQFCQRNPQPHIITILDPDLPPNTSPFTAELTHGASVNWTIEYNDAAQESLILQPRKDLEIGEYKIHLKLADNQNKDQVTTLDVHVCDCEGTVNNCMKAGIVAAGLQVPAILGILGGILALLILILLLLLFLRRRTVVKEPLLPPDDDTRDNVYYYDEEGGGEEDQDFDLSQLHRGLDARPEVTRNDVAPTLMSVPQYRPRPANPDEIGNFIDENLKAADSDPTAPPYDSLLVFDYEGSGSEAASLSSLNSSESDQDQDYDYLNEWGNRFKKLADMYGGGEDD
On to B1, for which the binding result in test [1] is reported as “no binding”.

B2: human IQGAP2 (cDNA, transiently expressed in COS1 cells) (other, UniProt Q13576 1-1575, looked up)
chain: MPHEELPSLQRPRYGSIVDDERLSAEEMDERRRQNIAYEYLCHLEEAKRWMEVCLVEELPPTTELEEGLRNGVYLAKLAKFFAPKMVSEKKIYDVEQTRYKKSGLHFRHTDNTVQWLRAMESIGLPKIFYPETTDVYDRKNIPRMIYCIHALSLYLFKLGIAPQIQDLLGKVDFTEEEISNMRKELEKYGIQMPSFSKIGGILANELSVDEAALHAAVIAINEAVEKGIAEQTVVTLRNPNAVLTLVDDNLAPEYQKELWDAKKKKEENARLKNSCISEEERDAYEELLTQAEIQGNINKVNRQAAVDHINAVIPEGDPENTLLALKKPEAQLPAVYPFAAAMYQNELFNLQKQNTMNYLAHEELLIAVEMLSAVALLNQALESNDLVSVQNQLRSPAIGLNNLDKAYVERYANTLLSVKLEVLSQGQDNLSWNEIQNCIDMVNAQIQEENDRVVAVGYINEAIDEGNPLRTLETLLLPTANISDVDPAHAQHYQDVLYHAKSQKLGDSESVSKVLWLDEIQQAVDDANVDKDRAKQWVTLVVDVNQCLEGKKSSDILSVLKSSTSNANDIIPECADKYYDALVKAKELKSERVSSDGSWLKLNLHKKYDYYYNTDSKESSWVTPESCLYKESWLTGKEIEDIIEEVTVGYIRENIWSASEELLLRFQATSSGPILREEFEARKSFLHEQEENVVKIQAFWKGYKQRKEYMHRRQTFIDNTDSIVKIQSWFRMATARKSYLSRLQYFRDHNNEIVKIQSLLRANKARDDYKTLVGSENPPLTVIRKFVYLLDQSDLDFQEELEVARLREEVVTKIRANQQLEKDLNLMDIKIGLLVKNRITLEDVISHSKKLNKKKGGEMEILNNTDNQGIKSLSKERRKTLETYQQLFYLLQTNPLYLAKLIFQMPQNKSTKFMDTVIFTLYNYASNQREEYLLLKLFKTALEEEIKSKVDQVQDIVTGNPTVIKMVVSFNRGARGQNTLRQLLAPVVKEIIDDKSLIINTNPVEVYKAWVNQLETQTGEASKLPYDVTTEQALTYPEVKNKLEASIENLRRVTDKVLNSIISSLDLLPYGLRYIAKVLKNSIHEKFPDATEDELLKIVGNLLYYRYMNPAIVAPDGFDIIDMTAGGQINSDQRRNLGSVAKVLQHAASNKLFEGENEHLSSMNNYLSETYQEFRKYFKEACNVPEPEEKFNMDKYTDLVTVSKPVIYISIEEIISTHSLLLEHQDAIAPEKNDLLSELLGSLGEVPTVESFLGEGAVDPNDPNKANTLSQLSKTEISLVLTSKYDIEDGEAIDSRSLMIKTKKLIIDVIRNQPGNTLTEILETPATAQQEVDHATDMVSRAMIDSRTPEEMKHSQSMIEDAQLPLEQKKRKIQRNLRTLEQTGHVSSENKYQDILNEIAKDIRNQRIYRKLRKAELAKLQQTLNALNKKAAFYEEQINYYDTYIKTCLDNLKRKNTRRSIKLDGKGEPKGAKRAKPVKYTAAKLHEKGVLLDIDDLQTNQFKNVTFDIIATEDVGIFDVRSKFLGVEMEKVQLNIQDLLQMQYEGVAVMKMFDKVKVNVNLLIYLLNKKFYGK
Turning to B2, the binding result in test [2] is listed as “no binding”.
With B3, the binding result in test [3] is recorded as “no binding”.

These data come from patent US20100169995A1 (RESEARCH FOUNDATION OF STATE UNIVERSITY OF NEW YORK, published 2010).
